Source: article PMC7292776

Biological target: typhoid toxin PltB homopentamer (S. Typhi PltB, wild type) (Salmonella enterica serovar Typhi) (UniProt Q8Z6A3)
Experiment: crystal structure

## typhoid toxin PltB homopentamer (S. Typhi PltB, wild type) (from UniProt Q8Z6A3 1-137) (natural protein)
  stoichiometry N: 5
